The text below walks through data of the supplement of paper PMC7125110.

± gives the standard error. Variants at the floor of the assay were thinned out.

Sequences and labels used below:
B1: glmS ribozyme (parent)
chain: AUAAAAGCGCCAGAACUACAGAAAUGUAGUUGACGAGGAGGAGGUUUAUCGAAUUUUCGGCGGAUGCCUCCAAA

Holding throughout (conditions): with glucosamine-6-phosphate
The variants in data set [1] derive from B1. The data set can be described thus: self-cleavage kobs at 640 uM GlcN6P; higher = faster cleavage; RNA array. In a few lines: (§1)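 In situ transcription by E. coli RNA polymerase produced barcoded ribozyme variants on sequenced MiSeq chips, and a hybridised Cy3 probe tracked them at 37 °C. Glucosamine-6-phosphate was flowed in at 40 μM to 10 mM in HEPES/KCl/Mg(OAc)2 buffer. kcat and KM were taken from weighted Michaelis–Menten fits of kobs values from exponential decay fits.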

In data set [2] the parent is B1. Kind of data set: self-cleavage kobs at 2500 uM GlcN6P; higher = faster cleavage; RNA array. The procedure, abridged: as §1
Variants of B1 are the subject of data set [3]. Kind of data set: self-cleavage kobs at 160 uM GlcN6P; higher = faster cleavage; RNA array. The procedure, abridged: as §1
The variants in data set [4] derive from B1. Kind of data set: self-cleavage kobs at 10000 uM GlcN6P; higher = faster cleavage; RNA array. In a few lines: as §1

On to AUAAAAGCGCCAGAACUACAGAAAUGUAGUUGACGAGGAGGAGGUUUAUCGAAUUUUCGGCGAAUUUCUCCAAA, for which the “self-cleavage kobs at 640 uM GlcN6P” value with glucosamine-6-phosphate [1] was < 1e-05 s⁻¹. Besides, in the data set with glucosamine-6-phosphate [2], the “self-cleavage kobs at 2500 uM GlcN6P” value is < 1e-05 s⁻¹.
Regarding AUAAAAGCGCCAGAACUACAGAAAUGUAAUUGACGAGGAGGAGUUUUAUCGAAUUUUCGGCGGACGCCUCCAAA, the “self-cleavage kobs at 640 uM GlcN6P” value in the data set with glucosamine-6-phosphate [1] was < 1e-05 s⁻¹. In the data set with glucosamine-6-phosphate [2], the “self-cleavage kobs at 2500 uM GlcN6P” value was < 1e-05 s⁻¹.
Turning to AUAAAAGCGUGAGGAAUACAGAAAUGUAGUUGACGAGGAGAAGGUUUAUCUAAUUUUCGGCGGAUGCCUCCAAA, in the data set with glucosamine-6-phosphate [1], the “self-cleavage kobs at 640 uM GlcN6P” value was < 1e-05 s⁻¹.
AUAAAAACGCGAGACCUACAGAAAUGUAGUUGACGAGGAGGAGGUUUAUAGAACUUUCGGCGGAUGCCUCCAAA: the “self-cleavage kobs at 640 uM GlcN6P” value with glucosamine-6-phosphate [1] is < 1e-05 s⁻¹. Besides, in the data set with glucosamine-6-phosphate [2], the “self-cleavage kobs at 2500 uM GlcN6P” value was < 1e-05 s⁻¹.
Consider AUAAAAGCGCCAAAACUACAGAAAUGUAGUUGACGAGGAGGCGGUUUAUCCAAUUUUCGGAGGAUGCCUCCAAA, for which, in the data set with glucosamine-6-phosphate [1], the “self-cleavage kobs at 640 uM GlcN6P” value was < 1e-05 s⁻¹. The “self-cleavage kobs at 2500 uM GlcN6P” value in the data set with glucosamine-6-phosphate [2] was < 1e-05 s⁻¹.
Take AUAAAAGUGCCAGAACUACAGAAAUGUAGUUGACGAGGAGGAGGAUUUUUGAAUUUUCGGCGGAUGCCUCCAAA: in the data set with glucosamine-6-phosphate [1], the “self-cleavage kobs at 640 uM GlcN6P” value was < 1e-05 s⁻¹. In the data set with glucosamine-6-phosphate [2], the “self-cleavage kobs at 2500 uM GlcN6P” value is < 1e-05 s⁻¹.
As to AUAAAAGCGCCAGAACUACAGAAAUGUAGUUGACGAGGAGGAGGUUUAGCGAAUUUUCGCCGGAUGCCUCCAAA, the “self-cleavage kobs at 160 uM GlcN6P” value with glucosamine-6-phosphate [3] was < 1e-05 s⁻¹. Moreover, the “self-cleavage kobs at 640 uM GlcN6P” value in the data set with glucosamine-6-phosphate [1] is < 1e-05 s⁻¹. For the same variant, in the data set with glucosamine-6-phosphate [2], the “self-cleavage kobs at 2500 uM GlcN6P” value was < 1e-05 s⁻¹.
On to AUAAAAGCGCCAGAACUACAGAAAUGUAGCUGACGAGGAGGAGGUUUAUCGAAUUUUCGGCGUAUGCCUGCAAA, for which, in the data set with glucosamine-6-phosphate [1], the “self-cleavage kobs at 640 uM GlcN6P” value was 3.84e-05 ± 1.8e-05 s⁻¹.
Consider AUAAAAGCGCCAGAACUACAGAAAUGUAUUUUACGAGGAGGAGGUUUAUCGAAUUUUUGGCGGAUGACUCCAAA, for which the “self-cleavage kobs at 640 uM GlcN6P” value in the data set with glucosamine-6-phosphate [1] was 3.68e-05 ± 1.8e-05 s⁻¹. Besides, in the data set with glucosamine-6-phosphate [2], the “self-cleavage kobs at 2500 uM GlcN6P” value was found to be 8.93e-05 ± 2.6e-05 s⁻¹.
For AUAAAAGCGCCAGAACUACAGAAAUGUAGUUGACGUGGAGGAGCUUUAUCGAAUUUUCGGUGGAUGCCUCAAAA, the “self-cleavage kobs at 640 uM GlcN6P” value with glucosamine-6-phosphate [1] was < 1e-05 s⁻¹.
With AUAAAGGCUCCAGAACUACAGAAAUGUAGUUGACGAGGAGGAGGUUUAUCGAAUUUUCGGCGGGUGCCUCCAAA, the “self-cleavage kobs at 640 uM GlcN6P” value with glucosamine-6-phosphate [1] was < 1e-05 s⁻¹.
In the case of AUAAAAGCGCCAGCACUACAGAAAUGUAGUUAACGAGGAUGAGGUUUAUCGAAUUUUCCGCGGAUGCCUCCAAA, the “self-cleavage kobs at 640 uM GlcN6P” value with glucosamine-6-phosphate [1] was < 1e-05 s⁻¹.
Turning to AUAAAAGCGCCAGAACUACAGAAAUGUAGUUGACGAGGAGGAGGUUCAUCGAAGUUUCGACGGAUGCCUCCAAA, in the data set with glucosamine-6-phosphate [1], the “self-cleavage kobs at 640 uM GlcN6P” value is < 1e-05 s⁻¹.
Still for that read-out and setting: under AUAAAAGCGCCAGAACUACAUAAAUUUAGUUGACGAGGAGGAGGUUUAUCGAAUUUUCGGCGGAGUCCGCCAAA stands 0.000207 ± 8.9e-05 s⁻¹.
AUAAAAGCGCCAGAACUACAGAAAUGUACUUGACGAGGAGGAGGUUUAUCGAAUGUUCGGCGGAUGCCUCCAAA: the “self-cleavage kobs at 640 uM GlcN6P” value with glucosamine-6-phosphate [1] was 0.000107 ± 1.3e-05 s⁻¹. Moreover, the “self-cleavage kobs at 2500 uM GlcN6P” value in the data set with glucosamine-6-phosphate [2] came to 0.000164 ± 2.5e-05 s⁻¹. Also, in the data set with glucosamine-6-phosphate [4], the “self-cleavage kobs at 10000 uM GlcN6P” value stood at 0.000757 ± 9.6e-05 s⁻¹.
For AUAAAAGCGCCAGAACUACAGAAAUGUAGUUGACAAGGAGGAGGUGUAUCGAAUUUUCGGGGGAUGCCUCCAAA, in that order: < 1e-05 s⁻¹, < 1e-05 s⁻¹ and < 1e-05 s⁻¹.
As for AUAAAAGCGCCAGAACUACAGAAAUGUAGUUGGCGAGGAGGAGGUUUCUCGAAUUUUCGGCGGAUGCUUCCAAA, the “self-cleavage kobs at 640 uM GlcN6P” value in the data set with glucosamine-6-phosphate [1] is < 1e-05 s⁻¹.
Regarding AUAAAAGCGCCAGAACUACAGAAAUGUACUUGACGAGUUGGAGGUUUAUAGAAUUUUCGGCGGAUGCCUCCAAA, the “self-cleavage kobs at 640 uM GlcN6P” value with glucosamine-6-phosphate [1] was < 1e-05 s⁻¹. The “self-cleavage kobs at 2500 uM GlcN6P” value with glucosamine-6-phosphate [2] was < 1e-05 s⁻¹.
Take AUAAAAGCGCCAGAACUACAGAAAUGUAGUUGACGAAGAGACGGUCUAUCGAAUUUUCGGCGGAUGCCUCCAAA: the “self-cleavage kobs at 640 uM GlcN6P” value in the data set with glucosamine-6-phosphate [1] was < 1e-05 s⁻¹.
Regarding AUAAAAACCCCAGAACUACAGAAAUGUAGUUGUCGAGGAGGAGGUUUAUCGAAUUUUCGGCGGAUCCCUCCAAA, in the data set with glucosamine-6-phosphate [1], the “self-cleavage kobs at 640 uM GlcN6P” value is < 1e-05 s⁻¹. The “self-cleavage kobs at 2500 uM GlcN6P” value with glucosamine-6-phosphate [2] was < 1e-05 s⁻¹.
Turning to AUAAAAGCGUCAGAGCUACAGAAAUGUAGUUGACGAACAGGAGGUUUAUCGAUUUUUCGGCGGAUGCCUCCAAA, the “self-cleavage kobs at 640 uM GlcN6P” value in the data set with glucosamine-6-phosphate [1] is < 1e-05 s⁻¹.
For AUAAAAGCGCCAGAACUACAGAAAUGUAGUUGACGAGGAGGAGGUUUAUCGCAUUUCCGGCGGAUGCGUGCAAA, in the data set with glucosamine-6-phosphate [1], the “self-cleavage kobs at 640 uM GlcN6P” value came to 0.000165 ± 5.4e-05 s⁻¹. In addition, the “self-cleavage kobs at 2500 uM GlcN6P” value with glucosamine-6-phosphate [2] was found to be 0.000133 ± 5.6e-05 s⁻¹.
